Assay results reported in publication PMC12051234, “NrdR in Streptococcus and Listeria spp.: DNA Helix Phase Dependence of the Bacterial Ribonucleotide Reductase Repressor” (Molecular Microbiology, 2024).
“And” between values parts separate entries of the source, which are not always exact repeats. Equal values may be shown once.

B1: Listeria monocytogenes NrdR (natural protein, UniProt B8DHI6 1-154, looked up)
chain: MRCPTCQYNGTRVVDSRPADDGNSIRRRRECEKCGFRFTTFEKVEESPLIVVKKDGAREEFAREKVRRGLIRACEKRPVSAEQIEEIVNEVERELRNIGDSEIASDLIGEKVMNKLANLDEVAYVRFASVYRQFKDISVFVEELKDLMEKNKDR
notes: NrdR, transcriptional repressor of ribonucleotide reductase genes, L. monocytogenes serotype 1/2a str; S10403S; molecular mass including the hexa-histidine tag 19 kDa; Oligomeric state depends on the nucleotides added; also called LmoNrdR; L. monocytogenes NrdR; source: E. coli BL21(DE3), purified (HisTrap FF Ni-Sepharose, desalting); not shown: His6, C-terminal, kept
B2: Streptococcus pneumoniae NrdR (natural protein, Streptococcus pneumoniae TIGR4, UniProt P67318 1-157, looked up)
chain: MRCPKCGATKSSVIDSRQAEEGNTIRRRRECDECQHRFTTYERVEERTLVVVKKDGTREQFSRDKIFNGIIRSAQKRPVSSDEINMVVNRIEQKLRGRNENEIQSEDIGSLVMEELAELDEITYVRFASVYRSFKDVSELESLLQQITQSSKKKKER
notes: NrdR, transcriptional repressor of ribonucleotide reductase genes, S. pneumoniae TIGR4; the nrdR gene (SP_1713, AAK75791) cloned in pET30a(+) between NdeI and XhoI; molecular mass including the hexa-histidine tag 19.4 kDa; Oligomeric state depends on the nucleotides added (none, ATP, dATP + ATP); also called SpnNrdR; source: E. coli BL21(DE3), purified (HisTrap FF Ni-Sepharose, desalting); not …

Legend:
[1] = target: the molecule itself; test: SEC; LmoNrdR 50 uM incubated with 1 mM ATP and 5 mM MgCl; 0.2 mM ATP in the buffer; Superdex S200 Increase, 4 C; 25 mM Bis-Tris Propane pH 6.5, 5% glycerol, 5 mM MgCl2, 100 mM KCl, 1 mM DTT
[2] = target: the molecule itself; test: SEC; LmoNrdR 50 uM incubated with dATP + ATP and 5 mM MgCl; 0.1 mM of each nucleotide in the buffer; Superdex S200 Increase, 4 C; 25 mM Bis-Tris Propane pH 6.5, 5% glycerol, 5 mM MgCl2, 100 mM KCl, 1 mM DTT
[3] = target: the molecule itself; test: SEC; LmoNrdR 50 uM, no nucleotides in protein or buffer (apo); Superdex S200 Increase, 4 C; 25 mM Bis-Tris Propane pH 6.5, 5% glycerol, 5 mM MgCl2, 100 mM KCl, 1 mM DTT; size from a calibration curve of globular standards
[4] = target: the molecule itself; test: SEC; SpnNrdR 50 uM incubated with 0.5 mM ATP, 0.5 mM dATP and 2.5 mM MgCl; ATP and dATP 0.1 mM each in the buffer; Superdex S200 Increase, 4 C; 25 mM HEPES pH 7.2, 2.5 mM MgCl2, 15% glycerol, 250 mM NaCl, 0.1 mM TCEP

Protein	stoichiometry N [1]	stoichiometry N [2]	stoichiometry N [3]	stoichiometry N [4]
B1	8	4	2 and 4	
B2				4
